Molecular target: Y925F-FAK (nonphosphorylatable mutant of FAK/YCam) (human, UniProt Q05397 1-1052, Y925F)
Test: co-IP

Y925F-FAK (nonphosphorylatable mutant of FAK/YCam), sequence (Q05397 whole entry Y925F): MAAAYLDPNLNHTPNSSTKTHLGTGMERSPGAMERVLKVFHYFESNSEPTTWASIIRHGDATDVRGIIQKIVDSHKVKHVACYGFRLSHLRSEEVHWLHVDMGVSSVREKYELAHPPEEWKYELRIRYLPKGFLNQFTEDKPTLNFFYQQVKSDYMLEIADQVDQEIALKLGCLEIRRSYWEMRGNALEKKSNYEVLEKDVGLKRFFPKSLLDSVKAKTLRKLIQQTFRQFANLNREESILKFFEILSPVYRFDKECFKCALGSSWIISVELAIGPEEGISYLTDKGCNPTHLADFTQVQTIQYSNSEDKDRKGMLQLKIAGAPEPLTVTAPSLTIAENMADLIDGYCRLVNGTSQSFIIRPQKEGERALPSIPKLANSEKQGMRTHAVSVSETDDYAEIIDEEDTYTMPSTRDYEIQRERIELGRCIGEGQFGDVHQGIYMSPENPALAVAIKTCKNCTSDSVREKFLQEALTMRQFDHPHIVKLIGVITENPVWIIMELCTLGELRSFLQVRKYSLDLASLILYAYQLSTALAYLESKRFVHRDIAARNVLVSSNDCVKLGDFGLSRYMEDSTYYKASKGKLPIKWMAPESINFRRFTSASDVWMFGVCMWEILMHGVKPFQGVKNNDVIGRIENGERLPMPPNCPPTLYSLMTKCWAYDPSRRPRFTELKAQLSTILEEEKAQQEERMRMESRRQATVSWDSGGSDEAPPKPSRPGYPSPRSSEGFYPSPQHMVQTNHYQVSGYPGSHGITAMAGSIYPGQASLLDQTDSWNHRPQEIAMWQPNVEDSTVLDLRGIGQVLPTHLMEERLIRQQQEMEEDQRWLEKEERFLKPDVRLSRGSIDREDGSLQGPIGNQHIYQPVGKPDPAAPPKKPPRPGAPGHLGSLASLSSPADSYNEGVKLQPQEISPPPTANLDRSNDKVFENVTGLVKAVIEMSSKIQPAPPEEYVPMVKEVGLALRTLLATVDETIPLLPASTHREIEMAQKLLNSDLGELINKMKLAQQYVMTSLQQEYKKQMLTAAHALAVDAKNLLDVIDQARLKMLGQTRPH

fold change of co-precipitated paxillin against wild-type FAK or Y925E-FAK: 3 fold
B1: paxillin (natural protein)
chain: not shown

From paper PMC3069021 (Molecular Biology of the Cell, 2011)
